Assay results from patent US20100003258A1 (AVEO PHARMACEUTICALS, published 2010).

Legend:
[1] = biological target: T1, recombinant human FGFR3 IIIc Fc fusion protein (human, UniProt P22607 23-375); assay: kinetic exclusion assay (KinExA), antibody and rhFGFR3 IIIc Fc in solution, room temperature
T1 construct: Bought reagent; also called rhFGFR3 IIIc Fc; not shown: Fc fragment (removable by Factor Xa)
T1 sequence (looked up): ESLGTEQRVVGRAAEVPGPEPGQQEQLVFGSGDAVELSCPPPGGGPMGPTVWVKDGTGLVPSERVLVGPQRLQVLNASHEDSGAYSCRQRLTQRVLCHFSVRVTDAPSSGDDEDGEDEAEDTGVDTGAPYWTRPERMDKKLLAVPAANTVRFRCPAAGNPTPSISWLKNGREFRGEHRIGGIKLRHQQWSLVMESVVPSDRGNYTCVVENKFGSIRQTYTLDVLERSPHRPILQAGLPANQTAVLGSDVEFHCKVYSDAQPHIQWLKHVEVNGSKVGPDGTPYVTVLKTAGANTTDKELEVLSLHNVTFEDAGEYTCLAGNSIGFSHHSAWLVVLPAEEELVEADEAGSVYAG
Method: The binding affinities of monoclonal 15D8, chimeric 15D8, and humanized 15D8 antibodies for recombinant human FGFR3 IIIc Fc fusion protein was measured using a kinetic exclusion assay, KinExA® technology (Sapidyne Instruments, Inc.). First, beads were prepared for the purpose of detecting anti-FGFR3 antibody that is unbound to FGFR3 IIIc Fc. This was done by adding 1 ml recombinant human FGFR3IIIc Fc (R&D Systems, Inc.) 10 ug/ml in PBS to 200 mg polymethyl methacrylate (PMMA) hard beads. The suspension was mixed and rotated for two hours at room temperature. Next, the mixture was centrifuged and supernatant was discarded. The bead pellet was rinsed once with 1 ml BSA 10 mg/ml in PBS by incubation for 1 hour at room temperature with rotation. The beads were resuspended in 27 ml PBS with 0.02% NaN₃. Next, a fixed concentration of anti-FGFR3 antibody (0.5 nM) was incubated in solution with a series of FGFR3 IIIc Fc concentrations (started with 50 nM (in PBS BSA (1 mg/ml)) and serially diluted 1:2 in PBS BSA(1 mg/ml) to obtain 50 to 0.0122 nM FGFR3 III Fc) at room temperature for at least 4 hours to allow equilibrium to be reached. By measuring the amount of anti-FGFR3 antibody that is not bound to FGFR3 IIIc Fc, the KD was determined. Unbound anti-FGFR3 antibody was detected by allowing the anti-FGFR3 antibody/FGFR3 IIIc Fc solution to flow through the FGFR3 IIIc Fc PMMA beads. The anti-FGFR3 antibody captured by these beads was then detected with Cy5-conjugated anti-human secondary antibody 0.3 ug/ml (Jackson ImmunoResearch) or Cy5-conjugated anti-mouse secondary antibody (Jackson ImmunoResearch) 0.5 ug/ml in PBS BSA 1 mg/ml. The detected signal for captured anti-FGFR3 antibody is directly proportional to the remaining free binding sites, thus allowing KD determination. The experiments were repeated, varying the concentrations of anti-FGFR3 antibody or FGFR3 III Fc used in solution, and the KD was calculated with the KinExA® software using n-curve analysis.

[2] = biological target: T1, recombinant human FGFR3 IIIc Fc fusion …; assay: SPR (Biacore T100), antibody captured on anti-mouse Ig, rhFGFR3 IIIc Fc as analyte, 37 C
Method: The binding affinities and kinetics of interaction of the monoclonal antibodies (15D8, 27H2, 2G4, and 4E7(7D12)) produced in Example 1 against recombinant human FGFR3 (IIIb and IIIc isoforms) Fc fusion protein (rhFGFR3 IIIb Fc or rhFGFR3 IIIc Fc) were measured by surface plasmon resonance using a Biacore™ T100 (Biacore) instrument.
Rabbit anti-mouse immunoglobulins (Biacore, Catalog No. BR-1005-14) were immobilized on carboxymethylated dextran CM4 sensor chips (Biacore, Catalog No. BR-1005-34) by amine coupling (Biacore, Catalog No. BR-1000-50) using a standard coupling protocol according to manufacturer's instructions.
The antibodies were captured in an individual flow cell at a flow rate of 10 μl/min. Injection time was varied for each antibody to yield approximately 40-50 RU of antibody captured for each cycle. Buffer or rhFGFR3 IIIb Fc (R&D Systems, Catalog No. 1264-FR-050) or rhFGFR3 IIIc Fc (R&D Systems, Catalog No. 766-FR-050) diluted in running buffer was injected sequentially over a reference surface (no antibody captured) and the active surface (antibody to be tested) for 300 sec at 60 μl/min. The dissociation phase was monitored for 30 minutes. The surface was then regenerated with two 60-seconds injection of 10 mM Glycine-HCl, pH 1.7 (made from Glycine pH 1.5 (Biacore, Catalog No. BR-1003-54) and pH 2.0 (Biacore, Catalog No. BR-1003-55)) at a flow rate of 60 μl/min. rhFGFR3 Fc concentrations tested were 0.62 nM to 40 nM.

B1: anti-FGFR3 monoclonal antibody 15D8 (antibody, mouse IgG1, kappa)
heavy: EIQLQQSGPELVKPGASVKVSCKASGYAFTSYNMYWVKQSHGKSLEWIGYIDPYNGGTSYNQKFKGKATLTVDKSSSTAYMHLNSLTSEDSAVYYCAREGGNYEAWFAYWGQGTLVTVSAAKTTPPSVYPLAPGSAAQTNSMVTLGCLVKGYFPEPVTVTWNSGSLSSGVHTFPAVLQSDLYTLSSSVTVPSSTWPSETVTCNVAHPASSTKVDKKIVPRDCGCKPCICTVPEVSSVFIFPPKPKDVLTITLTPKVTCVVVDISKDDPEVQFSWFVDDVEVHTAQTQPREEQFNSTFRSVSELPIMHQDWLNGKEFKCRVNSAAFPAPIEKTISKTKGRPKAPQVYTIPPPKEQMAKDKVSLTCMITDFFPEDITVEWQWNGQPAENYKNTQPIMDTDGSYFVYSKLNVQKSNWEAGNTFTCSVLHEGLHNHHTEKSLSHSPGK
light: QIVLTQSPALMSASPGEKVTMTCSASSSVSYMYWYQQKPRSSPKPWIYLTSYLASGVPARFSGSGSGTSYSLTISSMEAEDAATYYCQQWSSYPLTFGAGTKLELKRADAAPTVSIFPPSSEQLTSGGASVVCFLNNFYPKDINVKWKIDGSERQNGVLNSWTDQDSKDSTYSMSSTLTLTKDEYERHNSYTCEATHKTSTSPIVKSFNRNEC
notes: also called 15D8 IgG1; murine antibody 15D8
Question: What does the source list for B1?
Answer: Kd [1]: 0.0806 nM; Kd [2]: 1.8 nM; koff [2]: 0.00018 s⁻¹; kon [2]: 120000 M⁻¹ s⁻¹
